From patent US20180127503A1 (EUREKA THERAPEUTICS, published 2018)

How the values were obtained:
[1] = biological target: T1, human ROR2 extracellular domain (ROR2 ECD recombinant protein) (human, UniProt Q01974 34-403); assay: kinetic binding analysis, full length IgG1 on human ROR2-ECD
T1 construct: also called human ROR2-ECD; hROR2-ECD

[2] = biological target: T2, human ROR2 expressed on the cell surface (human, UniProt Q01974 34-943); assay: flow cytometry, OVCAR3 cells (ovarian CA); set-up: unit not given here
T2 construct: Endogenous ROR2 of human tumour cell lines; also called cell surface ROR2; ROR2 on tumour cell lines
T2 sequence (Q01974 34-943 limits assumed): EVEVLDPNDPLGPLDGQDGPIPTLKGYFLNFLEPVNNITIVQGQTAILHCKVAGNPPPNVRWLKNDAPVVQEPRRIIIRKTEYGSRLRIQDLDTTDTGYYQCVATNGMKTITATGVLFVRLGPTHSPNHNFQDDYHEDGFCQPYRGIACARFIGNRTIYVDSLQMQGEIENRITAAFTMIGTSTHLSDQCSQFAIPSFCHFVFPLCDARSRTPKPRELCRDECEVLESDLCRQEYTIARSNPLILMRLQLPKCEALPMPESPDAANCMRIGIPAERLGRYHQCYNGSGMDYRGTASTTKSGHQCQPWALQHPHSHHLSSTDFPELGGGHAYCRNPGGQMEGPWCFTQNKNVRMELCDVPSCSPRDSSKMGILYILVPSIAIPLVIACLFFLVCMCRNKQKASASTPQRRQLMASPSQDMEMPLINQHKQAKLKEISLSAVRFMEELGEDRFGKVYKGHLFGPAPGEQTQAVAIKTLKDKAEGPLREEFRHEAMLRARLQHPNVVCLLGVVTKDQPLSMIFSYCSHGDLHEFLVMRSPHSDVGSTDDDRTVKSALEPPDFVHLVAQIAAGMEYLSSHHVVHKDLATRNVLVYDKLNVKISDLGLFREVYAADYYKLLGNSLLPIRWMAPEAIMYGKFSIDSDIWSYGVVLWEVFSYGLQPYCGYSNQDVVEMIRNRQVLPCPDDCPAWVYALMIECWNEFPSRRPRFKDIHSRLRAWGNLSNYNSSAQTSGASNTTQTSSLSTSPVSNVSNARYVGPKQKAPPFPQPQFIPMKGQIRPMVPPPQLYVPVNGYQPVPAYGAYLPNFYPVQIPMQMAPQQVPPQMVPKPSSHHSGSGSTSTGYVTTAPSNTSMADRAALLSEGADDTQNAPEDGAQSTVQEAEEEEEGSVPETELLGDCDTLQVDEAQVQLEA
Procedure: (§1) Human tumour cell lines were authenticated using short tandem repeat (STR) analysis. They were cultured in RPMI1640 (Cellgro) supplemented with 10% fetal bovine serum (FBS, Life Technologies) at 37° C. in a 5% CO₂ humidified incubator. They were harvested, washed in PBS and reacted with ROR2-IgG at 1 ug/10⁶ tumour cells on ice for an hour. #901-IgG was used as a negative control at the same dose. After washing, a secondary PE-conjugated goat anti-human IgG, Fcγ fragment specific (1:100, Jackson ImmunoResearch) was added for another 30 min incubation. Staining was analyzed on a FACSCalibur (BD Biosciences). ROR2 (full length) antibody binding towards multiple cancer cell lines were compared with Rituxan and Herceptin antibodies. The cancer cell lines were derived from breast cancer, colorectal cancer, mesothelioma, hepatocellular carcinoma, ovarian cancer, osteosarcoma, neuroblastoma, etc. ROR2 #90 antibody could recognize most of the tumour cells tested, and in some cases, the binding intensity was higher than Herceptin (see Tables 8 to 10).

[3] = biological target: T2, human ROR2 expressed on the cell surface; assay: flow cytometry, SKNJB cells (neuroblastoma); set-up: unit not given here
Procedure: as §1

[4] = biological target: T2, human ROR2 expressed on the cell surface; assay: flow cytometry, H524 cells (SCLC); set-up: reference not given here
Procedure: as §1

[5] = biological target: T2, human ROR2 expressed on the cell surface; assay: flow cytometry, HTB27 cells (breast CA); set-up: unit not given here
Procedure: as §1

[6] = biological target: T2, human ROR2 expressed on the cell surface; assay: flow cytometry, AU565 cells (breast CA); set-up: unit not given here
Procedure: as §1

[7] = biological target: T2, human ROR2 expressed on the cell surface; assay: flow cytometry, CHP100 cells (EW/PNET); set-up: unit not given here
Procedure: as §1

[8] = biological target: T2, human ROR2 expressed on the cell surface; assay: flow cytometry, RG187 cells (osteosarcoma); set-up: unit not given here
Procedure: as §1

[9] = biological target: T2, human ROR2 expressed on the cell surface; assay: flow cytometry, H345 cells (SCLC); set-up: unit not given here
Procedure: as §1

[10] = biological target: T2, human ROR2 expressed on the cell surface; assay: flow cytometry, OUMS 27 cells (chondrosarcoma); set-up: unit not given here
Procedure: as §1

[11] = biological target: T2, human ROR2 expressed on the cell surface; assay: flow cytometry, MCF7-Luc cells (breast CA); set-up: unit not given here
Procedure: as §1

[12] = biological target: T2, human ROR2 expressed on the cell surface; assay: flow cytometry, M14 cells (melanoma); set-up: reference not given here
Procedure: as §1

[13] = biological target: T2, human ROR2 expressed on the cell surface; assay: flow cytometry, BE(1)N cells (neuroblastoma); set-up: unit not given here
Procedure: as §1

[14] = biological target: T2, human ROR2 expressed on the cell surface; assay: flow cytometry, HTB26 (MDA-MB-231) cells (breast CA); set-up: unit not given here
Procedure: as §1

[15] = biological target: T2, human ROR2 expressed on the cell surface; assay: flow cytometry, H69 cells (SCLC); set-up: unit not given here
Procedure: as §1

[16] = biological target: T2, human ROR2 expressed on the cell surface; assay: flow cytometry, LAN-1 cells (neuroblastoma); set-up: unit not given here
Procedure: as §1

[17] = biological target: T2, human ROR2 expressed on the cell surface; assay: flow cytometry, SKMEL-5 cells (melanoma); set-up: unit not given here
Procedure: as §1

[18] = biological target: T2, human ROR2 expressed on the cell surface; assay: flow cytometry, TC32 cells (EW/PNET); set-up: unit not given here
Procedure: as §1

[19] = biological target: T2, human ROR2 expressed on the cell surface; assay: flow cytometry, SKMEL28 cells (melanoma); set-up: reference not given here
Procedure: as §1

[20] = biological target: T2, human ROR2 expressed on the cell surface; assay: flow cytometry, SKBR3 cells (breast CA); set-up: reference not given here
Procedure: as §1

[21] = biological target: T2, human ROR2 expressed on the cell surface; assay: flow cytometry, MCF7 cells (breast CA); set-up: unit not given here
Procedure: as §1

[22] = biological target: T2, human ROR2 expressed on the cell surface; assay: flow cytometry, COLO 205 cells (CRC); set-up: unit not given here
Procedure: as §1

[23] = biological target: T2, human ROR2 expressed on the cell surface; assay: flow cytometry, CRL1427 cells (osteosarcoma); set-up: unit not given here
Procedure: as §1

[24] = biological target: T2, human ROR2 expressed on the cell surface; assay: flow cytometry, SKES-1 cells (EW/PNET); set-up: unit not given here
Procedure: as §1

[25] = biological target: T2, human ROR2 expressed on the cell surface; assay: flow cytometry, HTB132 cells (breast CA); set-up: unit not given here
Procedure: as §1

[26] = biological target: T2, human ROR2 expressed on the cell surface; assay: flow cytometry, TC71 cells (EW/PNET); set-up: unit not given here
Procedure: as §1

[27] = biological target: T2, human ROR2 expressed on the cell surface; assay: flow cytometry, HTB63 cells (melanoma); set-up: unit not given here
Procedure: as §1

T1 sequence (Q01974 34-403): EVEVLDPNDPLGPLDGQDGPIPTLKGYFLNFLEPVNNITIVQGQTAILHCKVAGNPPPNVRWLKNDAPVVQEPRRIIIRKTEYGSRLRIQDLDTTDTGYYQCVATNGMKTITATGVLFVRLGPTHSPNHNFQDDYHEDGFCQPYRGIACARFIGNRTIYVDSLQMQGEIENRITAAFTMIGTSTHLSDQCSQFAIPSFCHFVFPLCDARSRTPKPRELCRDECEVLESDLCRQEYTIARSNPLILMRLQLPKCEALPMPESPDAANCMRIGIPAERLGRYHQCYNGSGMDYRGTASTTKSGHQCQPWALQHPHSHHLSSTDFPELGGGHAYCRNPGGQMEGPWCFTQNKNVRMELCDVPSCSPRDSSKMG

B1: ROR2-90 full length human IgG1 antibody (antibody, V domains shown)
VH: EVQLVESGPGLVKPSQTLSLTCTVSGGSISSGGYYWSWIRQHPGKGLEWIGYIYYSGSTYYNPSLKSRVTISVDTSKNQFSLKLSSVTAADTAMYYCARGGLYWTYSQDVWGQGTLVTVSS
VL: QPVLTQPPSASGTPGQRVTISCSGSSSNIGSDYVSWYQQLPGTAPKLLIYRNDQRPSGVPDRFSGSKSGTSASLAISGLRSEDEADYYCVAWDDSLSGYVFGSGTKVTVLG
notes: also called clone #90; antibody #90
Kd [1]: 0.163 nM
koff [1]: 0.000167 s⁻¹
kon [1]: 1.02e+06 M⁻¹ s⁻¹
binding intensity [2]: 48
binding intensity [3]: 254
binding intensity [4]: 20
binding intensity [5]: 125
binding intensity [6]: 211
binding intensity [7]: 57
binding intensity [8]: 79
binding intensity [9]: 48
binding intensity [10]: 78
binding intensity [11]: 190
binding intensity [12]: 17
binding intensity [13]: 302
binding intensity [14]: 19
binding intensity [15]: 15
binding intensity [16]: 48
binding intensity [17]: 8
binding intensity [18]: 70
binding intensity [19]: 26
binding intensity [20]: 98
binding intensity [21]: 115
binding intensity [22]: 44
binding intensity [23]: 45
binding intensity [24]: 28
binding intensity [25]: 5
binding intensity [26]: 68
binding intensity [27]: 27

B2: ROR2-27 full length human IgG1 antibody (antibody, V domains shown)
VH: QVQLVESGAEVKKPGESLKISCKASGYSFSNYWIGWVRQMPGKGLEWMGIIYPDDSDTRYSPSFQGQVTISADKSISTAYLQWYSLKVADTAKYYCVRPRGAFDIWGQGTTVTVSS
VL: QSVLTQPPSVSGAPGQRVTISCTGSSSNIGAGHAVHWYQQLPGTAPKLLIYDNANRPSGVPDRFSGSQSGTSASLAITGLQTGDEADYYCGTWDDSPSAYVFGTGTKVTVLG
notes: also called clone #27; clone #027 IgG1
Kd [1]: 0.715 nM
koff [1]: 0.000608 s⁻¹
kon [1]: 851000 M⁻¹ s⁻¹
binding intensity [2]: 7
binding intensity [3]: 141
binding intensity [4]: 16
binding intensity [5]: 11
binding intensity [6]: 8
binding intensity [7]: 18
binding intensity [8]: 19
binding intensity [9]: 26
binding intensity [10]: 48
binding intensity [11]: 74
binding intensity [12]: 5
binding intensity [13]: 244
binding intensity [14]: 7
binding intensity [15]: 24
binding intensity [16]: 28
binding intensity [17]: 2
binding intensity [18]: 20
binding intensity [19]: 8
binding intensity [20]: 15
binding intensity [21]: 27
binding intensity [22]: 7
binding intensity [23]: 11
binding intensity [24]: 12
binding intensity [25]: 8
binding intensity [26]: 21
binding intensity [27]: 8
